Test results from patent publication US20040204348A1.
Bridges are numbered along the chain shown (N, C = ends). L15 (R1 : phenyl) = linker L15: -CO-CH2-NH-CO-CH2-CH2-CH(CO-NH-CH2-CO-NH-R1)-NH- with R1 = phenyl (anilide)

Molecular target: recombinant soluble uPAR (suPAR), Q03405
Assay: SPR (Biacore 3000), competition with scuPA
Settings: remark: other sources report otherwise

Sequence of recombinant soluble uPAR (suPAR), Q03405 (Q03405 23-299 limits assumed): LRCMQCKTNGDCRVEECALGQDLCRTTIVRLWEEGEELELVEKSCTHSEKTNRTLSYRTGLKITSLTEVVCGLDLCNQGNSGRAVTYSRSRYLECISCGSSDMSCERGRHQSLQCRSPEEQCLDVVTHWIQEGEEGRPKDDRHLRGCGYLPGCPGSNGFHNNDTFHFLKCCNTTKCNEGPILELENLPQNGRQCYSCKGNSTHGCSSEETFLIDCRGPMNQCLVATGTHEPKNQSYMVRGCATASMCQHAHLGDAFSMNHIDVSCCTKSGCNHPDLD

B1: Å36 (peptide)
peptide: VSNKYFSNIHW
modifications: linker N-C via L15 (R1 : phenyl); also: cyclised by linker L15 between X1 N and X11 carbonyl
Kd: 4 nM
